From publication PMC4052440
Positions count from the first letter of the chain named. Names and notes keep the numbering of the source.

B1: yeast Atm1p (Saccharomyces cerevisiae S288C) (protein)
chain: SPVIFTVSKLSTQRPLLFNSAVNLWNQAQKDITHKKSVEQFSSAPKVKTQVKKTSKAPTLSELKILKDLFRYIWPKGNNKVRIRVLIALGLLISAKILNVQVPFFFKQTIDSMNIAWDDPTVALPAAIGLTILCYGVARFGSVLFGELRNAVFAKVAQNAIRTVSLQTFQHLMKLDLGWHLSRQTGGLTRAMDRGTKGISQVLTAMVFHIIPISFEISVVCGILTYQFGASFAAITFSTMLLYSIFTIKTTAWRTHFRRDANKADNKAASVALDSLINFEAVKYFNNEKYLADKYNGSLMNYRDSQIKVSQSLAFLNSGQNLIFTTALTAMMYMGCTGVIGGNLTVGDLVLINQLVFQLSVPLNFLGSVYRDLKQSLIDMETLFKLRKNEVKIKNAERPLMLPENVPYDITFENVTFGYHPDRKILKNASFTIPAGWKTAIVGSSGSGKSTILKLVFRFYDPESGRILINGRDIKEYDIDALRKVIGVVPQDTPLFNDTIWENVKFGRIDATDEEVITVVEKAQLAPLIKKLPQGFDTIVGERGLMISGGEKQRLAIARVLLKNARIMFFDEATSALDTHTEQALLRTIRDNFTSGSRTSVYIAHRLRTIADADKIIVLDNGRVREEGKHLELLAMPGSLYRELWTIQEDLDHLENELKDQQEL
B2: yeast Atm1p (Saccharomyces cerevisiae S288C; R284E) (protein)
chain: B1 chain with R258E

Substrate: Nc1ncnc2c1ncn2[C@@H]1O[C@H](COP(=O)(O)OP(=O)(O)OP(=O)(O)O)[C@@H](O)[C@H]1O
Assay: ATPase assay
Assay type: biochemical, Saccharomyces cerevisiae
Conditions: Mg-ATP
[1] = no cluster, table prints the error as ± 5.3

| Protein | Km [1] [µM] | kcat [1] [min⁻¹] | Km (from the cluster-activation fit, table title prints R48E, column R284E) [µM] |
| --- | --- | --- | --- |
| B1 | 54.6 ± 0.4 | 1.93 ± 0.03 |  |
| B2 |  |  | 55.0 ± 16.5 |
